Drawing on the Immune Epitope Database (IEDB), this text covers Kd for 23 sequences.

Targets include HLA-A*31:01; HLA-A*11:01; HLA-A*33:01; HLA-A*03:01; HLA-A*68:01.
Holding throughout (test): IEDB peptide-MHC binding, purified MHC/competitive/radioactivity; filed as Kd, often an IC50 or EC50 that approximates it; ≥ and ≤ were set here for values at or beyond the usual limits of such assays
Where [1] appears, read: source organism: Vaccinia virus WR.
Setting [2] is: source organism: Mammarenavirus guanaritoense.
Setting [3] is: source organism: SARS coronavirus Tor2.
The mark [4] stands for this setting: source organism: Vaccinia virus Copenhagen.
The mark [5] stands for this setting: source organism: Lymphocytic choriomeningitis virus (strain Armstrong).

Some results are limits rather than exact numbers.

One may read the Kd as a measure of binding affinity in units of concentration. In the case of SSVQLSNNK, the Kd was 4580 nM with HLA-A*31:01 (setting [1]); 5.21 nM with HLA-A*11:01 (setting [1]); no less than 77700 nM with HLA-A*33:01 (setting [1]); 2200 nM in the experiment with HLA-A*03:01 (setting [1]); 19.9 nM with HLA-A*68:01 (setting [1]).
For LFTSTNDKIK, in that order: no less than 65600 nM, 915 nM, no less than 55200 nM, no less than 24900 nM and 531 nM.
For GIEFADNDR, in that order: 7550 nM, 1740 nM, 6540 nM, 2420 nM and 762 nM.
For RLVEEFFNR, in that order: 1.39 nM, 88.1 nM, 796 nM, 21.2 nM and 29.4 nM.
With QLEDSEYLFR, the Kd with HLA-A*31:01 (setting [1]) was 182 nM; in the experiment with HLA-A*11:01 (setting [1]), 79.1 nM; in the experiment with HLA-A*33:01 (setting [1]), 40 nM; in the experiment with HLA-A*03:01 (setting [1]) it was 376 nM; with HLA-A*68:01 (setting [1]) it was 90.9 nM.
Take SYSKMSVVMR: the dissociation constant Kd with HLA-A*31:01 (setting [2]) is 5.69 nM; in the experiment with HLA-A*11:01 (setting [2]), no less than 21700 nM; in the experiment with HLA-A*33:01 (setting [2]) it was 55.9 nM; with HLA-A*03:01 (setting [2]), 9970 nM; with HLA-A*68:01 (setting [2]) it was 132 nM.
As for GVIRSIFAR, the equilibrium dissociation constant (Kd) with HLA-A*31:01 (setting [3]) worked out at 1.02 nM; with HLA-A*11:01 (setting [3]), 0.618 nM; with HLA-A*33:01 (setting [3]) it was 118 nM; in the experiment with HLA-A*03:01 (setting [3]), 1300 nM; with HLA-A*68:01 (setting [3]), 0.519 nM.
As for KSSSIDVDK, the equilibrium dissociation constant (Kd) with HLA-A*31:01 (setting [1]) was 17700 nM; in the experiment with HLA-A*11:01 (setting [1]), 161 nM; in the experiment with HLA-A*33:01 (setting [1]) it was no less than 77700 nM; in the experiment with HLA-A*03:01 (setting [1]) it was 14200 nM; with HLA-A*68:01 (setting [1]), 8590 nM.
Regarding LLPSTDVNK, the Kd in the experiment with HLA-A*31:01 (setting [1]) is 17300 nM; with HLA-A*11:01 (setting [1]), 5540 nM; with HLA-A*33:01 (setting [1]) it was no less than 77700 nM; with HLA-A*03:01 (setting [1]), 5010 nM; in the experiment with HLA-A*68:01 (setting [1]) it was 6950 nM.
As for NLLVQYGAK, the Kd was no less than 20800 nM with HLA-A*31:01 (setting [1]); 12600 nM with HLA-A*11:01 (setting [1]); no less than 22300 nM with HLA-A*33:01 (setting [1]); 274 nM with HLA-A*03:01 (setting [1]); 2490 nM with HLA-A*68:01 (setting [1]).
Regarding NTFVNFNSVK, the equilibrium dissociation constant (Kd) with HLA-A*31:01 (setting [4]) was 1670 nM; in the experiment with HLA-A*11:01 (setting [4]), 65.9 nM; in the experiment with HLA-A*33:01 (setting [4]) it was 856 nM; with HLA-A*03:01 (setting [4]), 74.6 nM; with HLA-A*68:01 (setting [4]), 39.8 nM.
In the case of ELGELIGVNY, the dissociation constant Kd was no less than 70000 nM in the experiment with HLA-A*31:01 (setting [1]); no less than 69800 nM with HLA-A*11:01 (setting [1]); no less than 70000 nM with HLA-A*33:01 (setting [1]); no less than 70100 nM in the experiment with HLA-A*03:01 (setting [1]); no less than 37600 nM with HLA-A*68:01 (setting [1]).
With TLGNFSWFPH, the Kd with HLA-A*31:01 (setting [5]) came to 570 nM; with HLA-A*11:01 (setting [5]), 1380 nM; with HLA-A*33:01 (setting [5]), 12600 nM; with HLA-A*03:01 (setting [5]), 2150 nM; with HLA-A*68:01 (setting [5]), 8980 nM.
For the sequence NLCTHSFRK, the equilibrium dissociation constant (Kd) with HLA-A*31:01 (setting [3]) was 13600 nM; with HLA-A*11:01 (setting [3]), 7900 nM; in the experiment with HLA-A*33:01 (setting [3]) it was 9700 nM; with HLA-A*03:01 (setting [3]) it was 2430 nM; in the experiment with HLA-A*68:01 (setting [3]), no less than 24400 nM.
As for AMENLKAMLY, the Kd with HLA-A*31:01 (setting [1]) is no less than 41900 nM; in the experiment with HLA-A*11:01 (setting [1]) it was 222 nM; with HLA-A*33:01 (setting [1]), no less than 70000 nM; with HLA-A*03:01 (setting [1]), 144 nM; with HLA-A*68:01 (setting [1]) it was 2790 nM.
For RSKMLKRGSR, in that order: 0.61 nM, 1170 nM, 128 nM, 279 nM and 166 nM.
With QFKQDSKYSH, the dissociation constant Kd is 13000 nM with HLA-A*31:01 (setting [5]); no less than 69700 nM in the experiment with HLA-A*11:01 (setting [5]); 2910 nM with HLA-A*33:01 (setting [5]); no less than 70000 nM in the experiment with HLA-A*03:01 (setting [5]); no less than 70100 nM with HLA-A*68:01 (setting [5]).
Turning to EQNLTDTNFK, the Kd was no less than 70000 nM with HLA-A*31:01 (setting [1]); 1250 nM with HLA-A*11:01 (setting [1]); no less than 60600 nM with HLA-A*33:01 (setting [1]); 17900 nM with HLA-A*03:01 (setting [1]); 681 nM in the experiment with HLA-A*68:01 (setting [1]).
As to SMASLKSLY, the dissociation constant Kd in the experiment with HLA-A*31:01 (setting [1]) is 692 nM; with HLA-A*11:01 (setting [1]) it was 38.4 nM; with HLA-A*33:01 (setting [1]), 16100 nM; in the experiment with HLA-A*03:01 (setting [1]), 1.21 nM; in the experiment with HLA-A*68:01 (setting [1]) it was 26.5 nM.
Take TLVVISVIFY: the dissociation constant (Kd) is 12500 nM with HLA-A*31:01 (setting [1]); 1370 nM with HLA-A*11:01 (setting [1]); no less than 70000 nM with HLA-A*33:01 (setting [1]); 3490 nM with HLA-A*03:01 (setting [1]); 8660 nM with HLA-A*68:01 (setting [1]).
For LFMEMFFDY, in that order: 13000 nM, no less than 59500 nM, no less than 56100 nM, no less than 37600 nM and no less than 70200 nM.
For LLACTDPSER, in that order: 1260 nM, no less than 37000 nM, 2420 nM, no less than 70100 nM and 856 nM.
The matching figures for NFLRSIAMLK: 9.91 nM, 316 nM, 70 nM, 74.6 nM and 272 nM.
